Four molecules from doi:10.1101/2020.05.01.070730 (bioRxiv, 2020) can be followed below.

Changes are numbered by the printed parent chain.

The chains are these.
T1: MutS R272A (Pseudomonas aeruginosa, UniProt Q9HY08 1-855, R272A)
T1 sequence: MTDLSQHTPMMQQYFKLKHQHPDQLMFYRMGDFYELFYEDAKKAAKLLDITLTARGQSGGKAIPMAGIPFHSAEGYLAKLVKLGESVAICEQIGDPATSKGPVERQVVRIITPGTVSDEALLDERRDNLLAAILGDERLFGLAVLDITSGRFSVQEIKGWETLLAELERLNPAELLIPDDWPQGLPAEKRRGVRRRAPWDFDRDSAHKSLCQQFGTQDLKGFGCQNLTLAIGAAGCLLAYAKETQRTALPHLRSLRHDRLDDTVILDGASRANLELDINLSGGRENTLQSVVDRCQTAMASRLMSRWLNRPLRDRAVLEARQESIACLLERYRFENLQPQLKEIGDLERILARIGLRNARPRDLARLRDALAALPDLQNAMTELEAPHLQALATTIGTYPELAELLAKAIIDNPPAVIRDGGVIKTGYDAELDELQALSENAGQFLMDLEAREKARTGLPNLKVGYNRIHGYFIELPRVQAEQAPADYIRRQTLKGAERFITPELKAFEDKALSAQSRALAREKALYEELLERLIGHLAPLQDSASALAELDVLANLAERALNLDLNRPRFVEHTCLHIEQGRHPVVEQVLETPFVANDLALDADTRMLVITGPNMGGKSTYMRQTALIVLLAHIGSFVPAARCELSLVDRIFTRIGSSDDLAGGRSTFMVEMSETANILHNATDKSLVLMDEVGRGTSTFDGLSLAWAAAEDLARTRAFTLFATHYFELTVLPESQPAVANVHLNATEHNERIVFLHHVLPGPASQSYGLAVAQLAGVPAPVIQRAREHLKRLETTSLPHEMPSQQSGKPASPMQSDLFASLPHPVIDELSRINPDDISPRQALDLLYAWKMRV

T2: MutS N279A (Pseudomonas aeruginosa, UniProt Q9HY08 1-855, N279A)
T2 sequence: T1 sequence with A272R, N279A

T3: MutS (Pseudomonas aeruginosa, UniProt Q9HY08 1-855)
T3 sequence: T1 sequence with A272R

B1: GT-pDNA (GT 8 nt from 3'-OH) (dsDNA)
DNA 1: ATGTGAATCAGTATGGTTGCTATCTGC
DNA 2: ATTTCCTTCAGCAGATAGTAACCATACTGATTCACAT
B2: GT-dsDNA (GT 18 nt from 3' end) (dsDNA)
DNA 1: ATGTGAATCAGTATGGTTGCTATCTGCTGAAGGAAAT
DNA 2: B1 DNA 2
B3: pDNA (AT) (dsDNA)
DNA 1: ATGTGAATCAGTATGGTTACTATCTGC
DNA 2: B1 DNA 2
B4: dsDNA (dsDNA)
DNA 1: B2 DNA 1 with G19A
DNA 2: B1 DNA 2

One data set has as its target T1, MutS R272A. Description: EMSA.
B1 gave a Kd of 0.0493 ± 0.001 µM.
The same measure, in the same setting: the value for B2 was 0.0382 ± 0.0007 µM; that for B3 was 0.143 ± 0.0086 µM; that for B4 was 0.309 ± 0.0209 µM.

The target in a further data set is T2, MutS N279A. Description: EMSA.
For B1, binding was put at a Kd of 0.0632 ± 0.0024 µM.
Still for that read-out and setting: the same measure for B2: 0.0413 ± 0.0052 µM.
The same measure, in the same setting: the value for B3 was 0.43 ± 0.018 µM; that for B4 was 0.358 ± 0.0369 µM.

For another data set, the target named is T3, MutS. Briefly: EMSA.
For B1, binding was characterised by a dissociation constant (Kd) of 0.02 ± 0.0001 µM.
The same measure, in the same setting: the value for B2 was 0.035 ± 0.0009 µM.
The same measure, in the same setting: the value for B3 was 0.0507 ± 0.0023 µM; that for B4 was 0.331 ± 0.0159 µM.
